The text below walks through data of US6835824.

The target in this test is nine-person peanut-specific IgE antibody pool (pooled serum of patients with AD and positive peanut challenge). As to the kind of experiment: IgE ELISA inhibition, crude peanut coated, pooled serum. For orientation: In an ELISA, binding on a coated surface is turned into a signal by an enzyme label.

B1: Ara h I, 63.5 kD peanut allergen, native, purified from Florunner peanut extract (protein, Arachis hypogaea, UniProt P43238 85-626, looked up)
chain: RSPPGERTRGRQPGDYDDDRRQPRREEGGRWGPAGPREREREEDWRQPREDWRRPSHQQPRKIRPEGREGEQEWGTPGSHVREETSRNNPFYFPSRRFSTRYGNQNGRIRVLQRFDQRSRQFQNLQNHRIVQIEAKPNTLVLPKHADADNILVIQQGQATVTVANGNNRKSFNLDEGHALRIPSGFISYILNRHDNQNLRVAKISMPVNTPGQFEDFFPASSRDQSSYLQGFSRNTLEAAFNAEFNEIRRVLLEENAGGEQEERGQRRWSTRSSENNEGVIVKVSKEHVEELTKHAKSVSKKGSEEEGDITNPINLREGEPDLSNNFGKLFEVKPDKKNPQLQDLDMMLTCVEIKEGALMLPHFNSKAMVIVVVNKGTGNLELVAVRKEQQQRGRREEEEDEDEEEEGSNREVRRYTARLKEGDVFIMPAAHPVAINASSELHLLGFGINAENNHRIFLAGDKDNVIDQIEKQAKDLAFPGSGEQVEKLIKNQKESHFVSARPQSQSQSPSSPEKESPEKEDQEEENQGGKGPLLSILKAFN
modifications: glycoprotein
Broadly, the IC50 is the midpoint of a concentration-inhibition curve. A higher IC50 goes with a need for much substance. B1 yielded an IC50 of 5.5 ng/mL.
